# Reference: paper PMC6599478
# Key:
# [1] = target: HIV-1 clade B Tier 1A chronic virus MN.3 gp120 Env (HIV-1 (clade B, MN.3)) (UniProt P05877)
# [2] = target: HIV-1 MN.3 Env with the glycan mutation N332A, on pseudovirus (HIV-1 (clade B, MN.3)) (UniProt P05877)
Substance,"IC50 of neutralisation of wild type HIV-1 MN.3 virus, TZM-bl reporter cells [1] [µg/mL]","IC50 of neutralisation of HIV-1 MN.3 N332A pseudovirus, TZM-bl reporter cells [2] [µg/mL]"
"recombinant full length Tenascin-C, large isoform (TNC-L) (from UniProt P24821 23-2201) (natural protein)",31,
"recombinant full length Tenascin-C, large isoform (TNC-L), P24821 23-2201",,113
